From patent US20230090014A1 (NANJING SANHOME PHARMACEUTICAL, published 2023)
Read-outs that look alike come from different tables or passages of the source.

Legend:
[1] = target: T1, CD47(19-136)-hFc (human, biotin-labelled in the Octet assay of Example 8 (sites not given)); experiment: BLI (Fortebio Octet RED96), biotinylated CD47-hFc on SA sensor, antibody in solution
T1 construct: tied by name; also called CD47-hFc; CD47-hFc-Biotin

[2] = target: T2, CD47 on the surface of CHO-K1-E5 cells (human, UniProt Q08722 19-323); experiment: FACS on CHO-K1-hCD47 cells, PE anti-human IgG
T2 construct: Full length CD47 expressed from pTargeT-CD47 in CHO-K1 cells; also called CD47 on cell surface; CHO-K1-hCD47

[3] = target: T3, Human CD47-His protein (human, UniProt Q08722 19-136); experiment: ELISA on coated human CD47-His, anti-human IgG HRP, OD450
[4] = target: T2, CD47 on the surface of CHO-K1-E5 cells; experiment: cell based ELISA on fixed CHO-K1-E5 cells, anti-human IgG HRP, OD450
[5] = target: T2, CD47 on the surface of CHO-K1-E5 cells; experiment: FACS blocking assay on CHO-K1-hCD47 cells; blocked ligand SIRPα-biotin, PE-SA
[6] = target: T3, Human CD47-His protein; experiment: ELISA on coated human CD47-His, HRP anti-human IgG, OD450
[7] = target: T3, Human CD47-His protein; experiment: competition ELISA on coated CD47-His; blocked ligand SIRPα-biotin (2 µg/mL), SA-HRP, OD450
[8] = target: T2, CD47 on the surface of CHO-K1-E5 cells; experiment: FACS blocking assay on CHO-K1-E5 cells; blocked ligand SIRPα-Biotin, PE streptavidin
[9] = target: T4, hCD47 on the surface of Raji-hPD-L1 cells (human, UniProt Q08722 19-323); experiment: FACS on Raji-hPD-L1 cells (carry both hPD-L1 and hCD47), PE anti-human IgG Fc
T4 construct: whole, on cells

[10] = target: T5, Cynomolgus CD47-His (cynomolgus, UniProt A0A2K5X523 19-139); experiment: ELISA on coated cynomolgus CD47-His, anti-human IgG HRP, OD450
T5 construct: Bought protein; also called monkey CD47

[11] = target: T4, hCD47 on the surface of Raji-hPD-L1 …; experiment: FACS on Raji-hPD-L1 cells (carry both hPD-L1 and hCD47), PE anti-human IgG Fc; remark: listed apart in the source

T1 sequence (chain, as listed by the source limits assumed): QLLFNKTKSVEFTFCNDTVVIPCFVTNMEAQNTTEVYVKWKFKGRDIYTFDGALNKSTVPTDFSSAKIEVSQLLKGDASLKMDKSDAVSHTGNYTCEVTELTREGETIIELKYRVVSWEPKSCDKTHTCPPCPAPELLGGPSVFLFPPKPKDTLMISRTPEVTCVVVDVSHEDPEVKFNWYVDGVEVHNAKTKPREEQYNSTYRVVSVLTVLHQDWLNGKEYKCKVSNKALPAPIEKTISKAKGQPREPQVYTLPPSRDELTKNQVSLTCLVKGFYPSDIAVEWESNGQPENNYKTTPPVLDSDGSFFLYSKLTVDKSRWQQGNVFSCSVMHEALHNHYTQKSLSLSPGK

B1: Hu34-39-PE (antibody, IgG4, V domains shown)
VH: QVQLQESGPGLVKPSQTLSLTCKASGYTFTNYWITWVKQRPGQGLEWIGDITPGRGETNYNQKFKGRVTLTVDISASTAYMELSSLRSEDTAVYYCSRWGLRRGDYWGQGTSVTVSS
VL: EIVLTQSPGTLSLSPGERATLSCRASSSVSSSYLNWYQQKSGASPKLWIYSTSNLASGVPGRFSGSGSGTSYSLTISSVEAEDAATYYCQQYSGYPLTFGAGTKLEVK
notes: also called humanized anti-CD47 antibody Hu34-39-PE
B1 showed a Kd [1] of 0.113 nM, a koff [1] of 0.000758 s⁻¹ and a kon [1] of 6.69e+06 M⁻¹ s⁻¹. For the same binder, the “EC50 (read off the curve)” value [2] was roughly 1 nM, the “EC50 (read off the curve)” value [3] was roughly 0.08 nM and the “EC50 (read off the curve)” value [4] was roughly 0.1 nM. For the same binder, the “IC50 (read off the curve)” value [5] was roughly 2 nM, the “EC50 (read off the curve)” value [6] was roughly 60 nM and the “IC50 (read off the curve)” value [7] was roughly 100 nM. For the same binder, the “IC50 (read off the curve)” value [8] was roughly 1 nM, the “EC50 (read off the curve)” value [9] was roughly 0.1 nM and the “EC50 (read off the curve)” value [10] was roughly 0.1 nM. The “EC50 (read off the curve)” value [11] was roughly 0.2 nM.
